The source of these data is PMC10031466, “The ROK kinase N-acetylglucosamine kinase uses a sequential random enzyme mechanism with successive conformational changes upon each substrate binding” (The Journal of Biological Chemistry, 2023).

Assay in all cases: PK/LD coupled enzyme kinetics (KM app)
Common to all, as to conditions: Mg2+

Substrate in data set [1]: Nc1ncnc2c1ncn2[C@@H]1O[C@H](COP(=O)(O)OP(=O)(O)OP(=O)(O)O)[C@@H](O)[C@H]1O
The class given is biochemical, Plesiomonas shigelloides.

Substrate in data set [2]: CC(=O)N[C@@H]1[C@@H](O)[C@H](O)[C@@H](CO)O[C@@H]1O
The format is biochemical, Vibrio vulnificus.

Substrate in data set [3]: Nc1ncnc2c1ncn2[C@@H]1O[C@H](COP(=O)(O)OP(=O)(O)OP(=O)(O)O)[C@@H](O)[C@H]1O
The class given is biochemical, Vibrio vulnificus.

B1: N-acetylglucosamine kinase (PsNagK) (Plesiomonas shigelloides 302-73) (protein)
chain: MYYGFDIGGTKIEFGAFDADLVRVARERVATPTESYAAFLDAIVTLVNNADAEFGVKGTVGIGIPGIADVETGKLLTSNIPAAMGHTLQRDLEERLQRPVKIENDANCFALSEAWDEDLRGEPSVLGLILGTGVGGGLIFNGKVHSGRANIAGEIGHTRLPYDALKLLGMENAPIFPCGCKNSGCIDNYLSGRGFEQLYDHYFSEKLSAPEIIAHYEQGERRAVQHVERFMELLAICLANIFTCLDPHVVVLGGGLSNFELIYQELPKRLPAHLLHVAKLPKIIKARHGDAGGVRGAAFLNLA
notes: His-tagged protein
What is called Km is the concentration of substrate that gives half-maximal velocity. For B1, the Km in data set [1] stood at 290 ± 20 µM.

B2: N-acetylglucosamine kinase (NagK) (Vibrio vulnificus CMCP6) (protein)
chain: MYYGFDVGGTKIEFGAFNEKLERVATERVPTPTDDYPLLLETIAGLVAKYDQEFACEGKIGLGLPGMEDADDATVLTVNVPAAKGKPLRADLEAKIGRSVKIENDANCFALSEAWDEELQDAPSVMGLILGTGFGGGLIYEGKVFSGRNNVAGELGHMRLPLDAWFHLGDNAPLLGCGCGKKGCLDSYLSGRGFELLYAHYYGEEKKAIDIIKANAAGDEKAAEHVERFMELLAICFGNIFTANDPHVVALGGGLSNFELIYEEMPKRVPKYLLSVAKCPKIIKAKHGDSGGVRGAAFLNIKG
As to B2, the values for the Michaelis constant (Km) in data set [2] and in data set [3] were 210 ± 60 µM and 41 ± 9 µM, respectively.
